Source: paper PMC5768788

Target: 14-3-3γ (UniProt P61981)
Experiment: co-immunoprecipitation and immunoblot
Conditions: reference: wild-type Flag-PP1α; sites S224,T226

- binding against the reference: weaker
Substance: PP1α (from UniProt P62136) S224A/T226A
